{
  "source": "patent US20250163127A1",
  "key": {"CTLA-4 (human) [1]": {"target": "CTLA-4 (human)", "assay": "flow cytometry on HEK293 cells transfected with CTLA4; Fc control"}, "CD28 (human) [2]": {"target": "CD28 (human) (UniProt P10747)", "assay": "flow cytometry on HEK293 cells transfected with CD28; Fc control"}, "PD-L1 (human) [3]": {"target": "PD-L1 (human)", "assay": "flow cytometry on HEK293 cells transfected with PD-L1; Fc control"}, "[4]": {"target": "CTLA-4 (Homo sapiens (Human)) (UniProt P16410)", "sequence (P16410 36-223)": "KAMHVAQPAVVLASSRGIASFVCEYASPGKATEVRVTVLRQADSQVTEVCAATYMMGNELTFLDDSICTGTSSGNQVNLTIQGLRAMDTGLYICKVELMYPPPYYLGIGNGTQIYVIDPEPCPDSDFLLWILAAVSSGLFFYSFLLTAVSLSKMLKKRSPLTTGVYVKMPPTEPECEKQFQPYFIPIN", "assay": "flow cytometry, transfected cells"}, "[5]": {"target": "ICOS (Homo sapiens (Human)) (UniProt Q9Y6W8)", "sequence (Q9Y6W8 21-199 limits assumed)": "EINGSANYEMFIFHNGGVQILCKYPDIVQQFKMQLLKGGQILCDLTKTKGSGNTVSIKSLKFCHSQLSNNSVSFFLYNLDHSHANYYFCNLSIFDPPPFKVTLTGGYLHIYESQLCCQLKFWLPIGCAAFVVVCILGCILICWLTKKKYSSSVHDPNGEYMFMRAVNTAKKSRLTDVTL", "assay": "flow cytometry, transfected cells"}, "[6]": {"target": "CTLA-4 (Homo sapiens (Human)) (UniProt P16410)", "assay": "flow cytometry, transfected cells", "remark": "listed apart in the source"}, "[7]": {"target": "ICOS (Homo sapiens (Human)) (UniProt Q9Y6W8)", "assay": "flow cytometry, transfected cells", "remark": "listed apart in the source"}, "[8]": {"target": "CTLA-4 (Homo sapiens (Human)) (UniProt P16410)", "assay": "flow cytometry, transfected cells", "remark": "listed apart in the source"}, "[9]": {"target": "ICOS (Homo sapiens (Human)) (UniProt Q9Y6W8)", "assay": "flow cytometry, transfected cells", "remark": "listed apart in the source"}, "CD2 (human) [10]": {"target": "CD2 (human) (UniProt P06729)"}, "CD2 (human) [11]": {"target": "CD2 (human) (UniProt P06729)", "assay": "flow cytometry, CHO-CD2 cells"}, "PD-1-Fc (human)": {"target": "PD-1-Fc (human) (UniProt Q15116)", "sequence (Q15116 25-167 limits assumed)": "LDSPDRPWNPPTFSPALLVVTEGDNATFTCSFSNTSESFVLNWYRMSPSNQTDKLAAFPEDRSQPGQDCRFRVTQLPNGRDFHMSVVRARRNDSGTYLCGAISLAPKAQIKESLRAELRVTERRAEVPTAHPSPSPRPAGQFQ", "assay": "ForteBio Octet, PD-1 on anti-human capture sensor, 100 nM"}, "human PD-1 (human)": {"target": "human PD-1 (human) (UniProt Q15116)", "sequence (Q15116 25-288)": "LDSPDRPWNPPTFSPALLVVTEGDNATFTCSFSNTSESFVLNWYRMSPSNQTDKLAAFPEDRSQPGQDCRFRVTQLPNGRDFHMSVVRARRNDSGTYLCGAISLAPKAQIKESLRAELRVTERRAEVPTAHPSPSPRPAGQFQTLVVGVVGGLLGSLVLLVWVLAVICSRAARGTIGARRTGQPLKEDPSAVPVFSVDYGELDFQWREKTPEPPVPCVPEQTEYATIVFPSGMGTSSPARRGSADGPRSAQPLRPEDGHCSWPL"}, "CD28 (human) [12]": {"target": "CD28 (human) (UniProt P10747)", "assay": "flow cytometry, transfected cells"}, "CD28 (human) [13]": {"target": "CD28 (human) (UniProt P10747)", "assay": "flow cytometry, transfected cells", "remark": "listed apart in the source"}, "CD28 (human) [14]": {"target": "CD28 (human) (UniProt P10747)", "assay": "flow cytometry on HEK293 cells transfected with CD28"}, "PD-L1 (human) [15]": {"target": "PD-L1 (human)", "assay": "flow cytometry on HEK293 cells transfected with PD-L1"}, "CTLA-4 (human) [16]": {"target": "CTLA-4 (human)", "assay": "flow cytometry on HEK293 cells transfected with CTLA4"}, "CD96 (human)": {"target": "T1, CD96 (human) (UniProt P40200)", "T1 sequence": "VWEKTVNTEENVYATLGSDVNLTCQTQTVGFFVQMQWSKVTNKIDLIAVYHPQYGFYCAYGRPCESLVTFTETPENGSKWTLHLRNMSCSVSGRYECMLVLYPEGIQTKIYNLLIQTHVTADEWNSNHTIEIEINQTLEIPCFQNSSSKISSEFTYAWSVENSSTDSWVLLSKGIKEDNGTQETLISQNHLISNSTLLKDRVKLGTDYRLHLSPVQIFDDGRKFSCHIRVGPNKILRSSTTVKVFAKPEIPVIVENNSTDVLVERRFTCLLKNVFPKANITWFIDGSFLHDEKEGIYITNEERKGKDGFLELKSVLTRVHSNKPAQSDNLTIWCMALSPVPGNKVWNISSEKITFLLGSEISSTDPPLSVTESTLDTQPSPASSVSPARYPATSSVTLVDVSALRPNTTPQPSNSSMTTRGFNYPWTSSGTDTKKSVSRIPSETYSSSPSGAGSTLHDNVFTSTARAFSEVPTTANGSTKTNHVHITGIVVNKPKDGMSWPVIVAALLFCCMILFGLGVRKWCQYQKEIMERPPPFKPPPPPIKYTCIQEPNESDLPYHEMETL", "assay": "flow cytometry, transfected HEK293; secondary reagent alone"}, "TIGIT (human)": {"target": "T2, TIGIT (human) (UniProt Q495A1)", "T2 sequence": "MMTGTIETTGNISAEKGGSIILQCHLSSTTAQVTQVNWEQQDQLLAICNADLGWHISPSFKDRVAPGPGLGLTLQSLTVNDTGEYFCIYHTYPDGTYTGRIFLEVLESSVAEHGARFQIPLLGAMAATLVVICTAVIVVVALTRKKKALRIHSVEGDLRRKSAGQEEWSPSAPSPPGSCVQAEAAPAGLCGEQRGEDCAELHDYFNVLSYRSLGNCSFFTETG", "assay": "flow cytometry, transfected HEK293; secondary reagent alone"}, "CD112R (human)": {"target": "CD112R (human) (UniProt Q6DKI7)", "assay": "flow cytometry, transfected HEK293; secondary reagent alone"}, "CD226 (human)": {"target": "T3, CD226 (human) (UniProt Q15762)", "T3 sequence": "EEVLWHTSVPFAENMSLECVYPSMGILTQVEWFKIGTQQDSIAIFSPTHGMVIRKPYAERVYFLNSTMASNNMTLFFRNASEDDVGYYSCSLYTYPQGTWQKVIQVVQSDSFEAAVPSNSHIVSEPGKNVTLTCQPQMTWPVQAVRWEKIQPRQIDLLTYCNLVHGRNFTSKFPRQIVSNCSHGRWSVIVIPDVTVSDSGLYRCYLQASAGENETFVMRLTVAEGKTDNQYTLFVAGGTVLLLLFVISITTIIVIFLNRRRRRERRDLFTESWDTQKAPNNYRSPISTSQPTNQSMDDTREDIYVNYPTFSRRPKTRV", "assay": "flow cytometry, transfected HEK293; secondary reagent alone"}},
  "note": "Read-outs that look alike come from different tables or passages of the source.",
  "data": [
    {"substance": "Fc only", "values": [
      {"measurement": "MFI at 66.6 nM", "setting": "CTLA-4 (human) [1]", "result": 5960, "unit": "MFI"},
      {"measurement": "MFI at 66.6 nM", "setting": "CD28 (human) [2]", "result": 2590, "unit": "MFI"},
      {"measurement": "MFI at 22.2 nM", "setting": "PD-L1 (human) [3]", "result": 4740, "unit": "MFI"}
    ]},
    {"substance": "Wildtype ICOSL ECD-Fc (Fc fusion)", "values": [
      {"measurement": "MFI", "setting": "[4]", "result": 330000, "unit": "MFI"},
      {"measurement": "MFI", "setting": "[5]", "result": 212000, "unit": "MFI"},
      {"measurement": "MFI", "setting": "[6]", "result": 3800, "unit": "MFI"},
      {"measurement": "MFI", "setting": "[7]", "result": 36600, "unit": "MFI"},
      {"measurement": "MFI", "setting": "[8]", "result": 4770, "unit": "MFI"},
      {"measurement": "MFI", "setting": "[9]", "result": 83800, "unit": "MFI"}
    ]},
    {"substance": "CD58 (WT) 3650-Fc (Fc fusion)", "values": [
      {"measurement": "100 nM IFN-gamma (pg/mL), SEB assay", "setting": "CD2 (human) [10]", "result": 9660, "unit": "pg/mL"},
      {"measurement": "EC50", "setting": "CD2 (human) [11]", "result": 0.2, "unit": "nM"}
    ]},
    {"substance": "variant PD-L2 IgV I13V/H15Q/R76G/I85F Fc fusion", "values": [
      {"measurement": "Fortebio Response Units (Response Units)", "setting": "PD-1-Fc (human)", "result": -0.04},
      {"measurement": "IFN gamma levels pg/mL (MLR)", "setting": "human PD-1 (human)", "result": 1530, "unit": "pg/mL"}
    ]},
    {"substance": "ICOSL ECD-Fc N52Q/N84Q/N168Q (Fc fusion)", "values": [
      {"measurement": "MFI", "setting": "CD28 (human) [12]", "result": 1580, "unit": "MFI"}
    ]},
    {"substance": "ICOSL ECD-Fc N30D/K42E/N52S/H115R/F172S/N194D (Fc fusion)", "values": [
      {"measurement": "MFI", "setting": "CD28 (human) [13]", "result": 4400, "unit": "MFI"}
    ]},
    {"substance": "WT CD80 IgV-Fc (inert) (Fc fusion)", "values": [
      {"measurement": "MFI at 66.6 nM", "setting": "CD28 (human) [14]", "result": 1620, "unit": "MFI"},
      {"measurement": "MFI at 22.2 nM", "setting": "PD-L1 (human) [15]", "result": 1770, "unit": "MFI"},
      {"measurement": "MFI at 66.6 nM", "setting": "CTLA-4 (human) [16]", "result": 20700, "unit": "MFI"}
    ]},
    {"substance": "Anti-huFc PE (tool reagent)", "values": [
      {"measurement": "MFI at 20 nM", "setting": "CD96 (human)", "result": 1060},
      {"measurement": "MFI at 20 nM", "setting": "TIGIT (human)", "result": 1140},
      {"measurement": "MFI at 20 nM", "setting": "CD112R (human)", "result": 1010},
      {"measurement": "MFI at 20 nM", "setting": "CD226 (human)", "result": 1010}
    ]}
  ]
}
